Measurements reported in article PMC12260427.
Where two headings read alike, the source gives them in different places.

How the values were obtained:
alpha-thrombin [1] = target: T1, alpha-thrombin (Homo sapiens, UniProt P00734;P00734 328-363;364-622); assay: native MS
alpha-thrombin [2] = target: T1, alpha-thrombin; assay: EMSA
alpha-thrombin [3] = target: T1, alpha-thrombin; assay: ITC
alpha-thrombin [4] = target: T1, alpha-thrombin; assay: ITC; remark: listed apart in the source
alpha-thrombin [5] = target: T1, alpha-thrombin; assay: ITC; remark: listed apart in the source

B1: ss(ATTCG)18 (ssDNA)
DNA: ATTCGATTCGATTCGATTCGATTCGATTCGATTCGATTCGATTCGATTCGATTCGATTCGATTCGATTCGATTCGATTCGATTCGATTCG
alpha-thrombin [1]
  binding result: no binding

B2: ss(GGAAT)18 (ssDNA)
DNA: GGAATGGAATGGAATGGAATGGAATGGAATGGAATGGAATGGAATGGAATGGAATGGAATGGAATGGAATGGAATGGAATGGAATGGAAT
alpha-thrombin [2]
  binding result: no binding

B3: ss(ATTCC)18 (structured_DNA)
DNA: ATTCCATTCCATTCCATTCCATTCCATTCCATTCCATTCCATTCCATTCCATTCCATTCCATTCCATTCCATTCCATTCCATTCCATTCC
alpha-thrombin [3]
  Kd: 746 nM
alpha-thrombin [4]
  Kd: 1460 nM
alpha-thrombin [5]
  Kd: 174 nM
